Test results from US20090317363A1.

B1: RANTES derivative: signature sequence SEQ ID NO: 4 fused to positions 10-68 of native RANTES (SEQ ID NO: 1) (ligand)
chain: QGPPLMWLQVCCFAYIARPLPRAHIKEYFYTSGKCSNPAVVFVTRKNRQVCANPEKKWVREYINSLEMS
B2: RANTES derivative: signature sequence SEQ ID NO: 45 fused to positions 10-68 of native RANTES (SEQ ID NO: 1) (ligand)
chain: QGPPLMSLTVCCFAYIARPLPRAHIKEYFYTSGKCSNPAVVFVTRKNRQVCANPEKKWVREYINSLEMS
B3: RANTES derivative: signature sequence SEQ ID NO: 52 fused to positions 10-68 of native RANTES (SEQ ID NO: 1) (ligand)
chain: QGPPLMALSVCCFAYIARPLPRAHIKEYFYTSGKCSNPAVVFVTRKNRQVCANPEKKWVREYINSLEMS
B4: RANTES derivative: signature sequence SEQ ID NO: 46 fused to positions 10-68 of native RANTES (SEQ ID NO: 1) (ligand)
chain: QGPLSGWAQVCCFAYIARPLPRAHIKEYFYTSGKCSNPAVVFVTRKNRQVCANPEKKWVREYINSLEMS
B5: RANTES derivative: signature sequence SEQ ID NO: 50 fused to positions 10-68 of native RANTES (SEQ ID NO: 1) (ligand)
chain: QGPPLQWFQVCCFAYIARPLPRAHIKEYFYTSGKCSNPAVVFVTRKNRQVCANPEKKWVREYINSLEMS
B6: RANTES derivative: signature sequence SEQ ID NO: 38 fused to positions 10-68 of native RANTES (SEQ ID NO: 1) (ligand)
chain: QGPPLMQLQVCCFAYIARPLPRAHIKEYFYTSGKCSNPAVVFVTRKNRQVCANPEKKWVREYINSLEMS
B7: RANTES derivative: signature sequence SEQ ID NO: 49 fused to positions 10-68 of native RANTES (SEQ ID NO: 1) (ligand)
chain: QGPLGQQGQVCCFAYIARPLPRAHIKEYFYTSGKCSNPAVVFVTRKNRQVCANPEKKWVREYINSLEMS
B8: RANTES derivative: signature sequence SEQ ID NO: 35 fused to positions 10-68 of native RANTES (SEQ ID NO: 1) (ligand)
chain: QGPPGMWSQSCCFAYIARPLPRAHIKEYFYTSGKCSNPAVVFVTRKNRQVCANPEKKWVREYINSLEMS
B9: RANTES derivative: signature sequence SEQ ID NO: 32 fused to positions 10-68 of native RANTES (SEQ ID NO: 1) (ligand)
chain: QGPPGQWSQVCCFAYIARPLPRAHIKEYFYTSGKCSNPAVVFVTRKNRQVCANPEKKWVREYINSLEMS
B10: RANTES derivative: signature sequence SEQ ID NO: 37 fused to positions 10-68 of native RANTES (SEQ ID NO: 1) (ligand)
chain: QGPPLMGTQSCCFAYIARPLPRAHIKEYFYTSGKCSNPAVVFVTRKNRQVCANPEKKWVREYINSLEMS
B11: RANTES derivative: signature sequence SEQ ID NO: 48 fused to positions 10-68 of native RANTES (SEQ ID NO: 1) (ligand)
chain: QGPLSSQSQVCCFAYIARPLPRAHIKEYFYTSGKCSNPAVVFVTRKNRQVCANPEKKWVREYINSLEMS
B12: RANTES derivative: signature sequence SEQ ID NO: 56 fused to positions 10-68 of native RANTES (SEQ ID NO: 1) (ligand)
chain: QGPPLMSSQSCCFAYIARPLPRAHIKEYFYTSGKCSNPAVVFVTRKNRQVCANPEKKWVREYINSLEMS
B13: RANTES derivative: signature sequence SEQ ID NO: 44 fused to positions 10-68 of native RANTES (SEQ ID NO: 1) (ligand)
chain: QGPPLMSLAVCCFAYIARPLPRAHIKEYFYTSGKCSNPAVVFVTRKNRQVCANPEKKWVREYINSLEMS
B14: RANTES derivative: signature sequence SEQ ID NO: 51 fused to positions 10-68 of native RANTES (SEQ ID NO: 1) (ligand)
chain: QGPPLQWTQVCCFAYIARPLPRAHIKEYFYTSGKCSNPAVVFVTRKNRQVCANPEKKWVREYINSLEMS
B15: RANTES derivative: signature sequence SEQ ID NO: 40 fused to positions 10-68 of native RANTES (SEQ ID NO: 1) (ligand)
chain: QGPPMSWSQSCCFAYIARPLPRAHIKEYFYTSGKCSNPAVVFVTRKNRQVCANPEKKWVREYINSLEMS
B16: RANTES derivative: signature sequence SEQ ID NO: 31 fused to positions 10-68 of native RANTES (SEQ ID NO: 1) (ligand)
chain: QGPPLSWLQSCCFAYIARPLPRAHIKEYFYTSGKCSNPAVVFVTRKNRQVCANPEKKWVREYINSLEMS
B17: RANTES derivative: signature sequence SEQ ID NO: 43 fused to positions 10-68 of native RANTES (SEQ ID NO: 1) (ligand)
chain: QGPPMQGGLSCCFAYIARPLPRAHIKEYFYTSGKCSNPAVVFVTRKNRQVCANPEKKWVREYINSLEMS
B18: RANTES derivative: signature sequence SEQ ID NO: 57 fused to positions 10-68 of native RANTES (SEQ ID NO: 1) (ligand)
chain: QGPPLMGLSVCCFAYIARPLPRAHIKEYFYTSGKCSNPAVVFVTRKNRQVCANPEKKWVREYINSLEMS
B19: RANTES derivative: signature sequence SEQ ID NO: 54 fused to positions 10-68 of native RANTES (SEQ ID NO: 1) (ligand)
chain: QGPPGQWGQVCCFAYIARPLPRAHIKEYFYTSGKCSNPAVVFVTRKNRQVCANPEKKWVREYINSLEMS
B20: RANTES derivative: signature sequence SEQ ID NO: 36 fused to positions 10-68 of native RANTES (SEQ ID NO: 1) (ligand)
chain: QGPPLQWRQSCCFAYIARPLPRAHIKEYFYTSGKCSNPAVVFVTRKNRQVCANPEKKWVREYINSLEMS
B21: RANTES derivative: signature sequence SEQ ID NO: 55 fused to positions 10-68 of native RANTES (SEQ ID NO: 1) (ligand)
chain: QGPPGSWSQVCCFAYIARPLPRAHIKEYFYTSGKCSNPAVVFVTRKNRQVCANPEKKWVREYINSLEMS
B22: RANTES derivative: signature sequence SEQ ID NO: 6 fused to positions 10-68 of native RANTES (SEQ ID NO: 1) (ligand)
chain: QGPPLMWLQTCCFAYIARPLPRAHIKEYFYTSGKCSNPAVVFVTRKNRQVCANPEKKWVREYINSLEMS
B23: RANTES derivative: signature sequence SEQ ID NO: 53 fused to positions 10-68 of native RANTES (SEQ ID NO: 1) (ligand)
chain: QGPPLMWSQVCCFAYIARPLPRAHIKEYFYTSGKCSNPAVVFVTRKNRQVCANPEKKWVREYINSLEMS
B24: RANTES derivative: signature sequence SEQ ID NO: 34 fused to positions 10-68 of native RANTES (SEQ ID NO: 1) (ligand)
chain: QGPPLSWQQSCCFAYIARPLPRAHIKEYFYTSGKCSNPAVVFVTRKNRQVCANPEKKWVREYINSLEMS
B25: RANTES derivative: signature sequence SEQ ID NO: 39 fused to positions 10-68 of native RANTES (SEQ ID NO: 1) (ligand)
chain: QGPPLSWSQVCCFAYIARPLPRAHIKEYFYTSGKCSNPAVVFVTRKNRQVCANPEKKWVREYINSLEMS
B26: RANTES derivative: signature sequence SEQ ID NO: 41 fused to positions 10-68 of native RANTES (SEQ ID NO: 1) (ligand)
chain: QGPPLMNLQVCCFAYIARPLPRAHIKEYFYTSGKCSNPAVVFVTRKNRQVCANPEKKWVREYINSLEMS
B27: RANTES derivative: signature sequence SEQ ID NO: 30 fused to positions 10-68 of native RANTES (SEQ ID NO: 1) (ligand)
chain: QGPPLSWLQVCCFAYIARPLPRAHIKEYFYTSGKCSNPAVVFVTRKNRQVCANPEKKWVREYINSLEMS
B28: RANTES derivative: signature sequence SEQ ID NO: 47 fused to positions 10-68 of native RANTES (SEQ ID NO: 1) (ligand)
chain: QGPLSQSSQVCCFAYIARPLPRAHIKEYFYTSGKCSNPAVVFVTRKNRQVCANPEKKWVREYINSLEMS
B29: RANTES derivative: signature sequence SEQ ID NO: 5 fused to positions 10-68 of native RANTES (SEQ ID NO: 1) (ligand)
chain: QGPPLMWTQSCCFAYIARPLPRAHIKEYFYTSGKCSNPAVVFVTRKNRQVCANPEKKWVREYINSLEMS
B30: RANTES derivative: signature sequence SEQ ID NO: 33 fused to positions 10-68 of native RANTES (SEQ ID NO: 1) (ligand)
chain: QGPPMMAGLSCCFAYIARPLPRAHIKEYFYTSGKCSNPAVVFVTRKNRQVCANPEKKWVREYINSLEMS
B31: RANTES derivative: signature sequence SEQ ID NO: 42 fused to positions 10-68 of native RANTES (SEQ ID NO: 1) (ligand)
chain: QGPPMSAYQVCCFAYIARPLPRAHIKEYFYTSGKCSNPAVVFVTRKNRQVCANPEKKWVREYINSLEMS

These binders were tested against CCR5 (UniProt P51681) (assay: cell-based or functional assay).

Row | Binder | CCR5 sequestration (%) (% of control surface CCR5) | CCR5 signalling (%) (% of Emax of PSC-RANTES) | anti-HIV potency (IC50, nM) by cell fusion assay [nM] | anti-HIV potency (IC50, nM) by viral replication assay [nM]
1 | B1 | 3 | 4.6 | 0.02 | 0.38
2 | B2 | 62 | 77.4 | 0.02 | –
3 | B3 | 11 | 8.3 | 0.02 | –
4 | B4 | 72 | 97.6 | 0.4 | –
5 | B5 | 11 | 7.6 | 0.02 | –
6 | B6 | 3 | 0.3 | 0.1 | –
7 | B7 | 77 | 97.2 | 0.74 | –
8 | B8 | 5 | 4.9 | 0.05 | –
9 | B9 | 5 | 6 | 0.03 | –
10 | B10 | 5 | 0.7 | 0.09 | –
11 | B11 | 78 | 100 | 0.64 | –
12 | B12 | 15 | 7.5 | 0.15 | –
13 | B13 | 60 | 68.5 | 0.02 | –
14 | B14 | 12 | 5 | 0.02 | –
15 | B15 | 6 | 0 | 0.11 | –
16 | B16 | 6 | 3.6 | 0.02 | –

Row | Binder | CCR5 sequestration (%) (% of control surface CCR5) | CCR5 signalling (%) (% of Emax of PSC-RANTES) | anti-HIV potency (IC50, nM) by cell fusion assay [nM] | anti-HIV potency (IC50, nM) by viral replication assay [nM]
17 | B17 | 4 | 0.3 | 0.29 | –
18 | B18 | 18 | 4.9 | 0.16 | –
19 | B19 | 12 | 2.1 | 0.06 | –
20 | B20 | 7 | 5.1 | 0.05 | –
21 | B21 | 33 | 7.3 | 0.07 | –
22 | B22 | 3 | 1.4 | 0.02 | 289
23 | B23 | 16 | 5.1 | 0.02 | –
24 | B24 | 8 | 5.1 | 0.03 | –
25 | B25 | 5 | 1.7 | 0.1 | –
26 | B26 | 9 | 0 | 0.12 | –
27 | B27 | 4 | 4.1 | 0.01 | –
28 | B28 | 78 | 96.9 | 0.44 | –
29 | B29 | 0 | 5.3 | 0.02 | 0.576
30 | B30 | 0 | 0.2 | 0.03 | –
31 | B31 | 0 | 0.2 | 0.16 | –
